# Publication PMC9820253, “Integration Host Factor Binds DNA Holliday Junctions”
# Substitutions are numbered along the chain they refer to.
# B1: J34 junction (structured_DNA)
# DNA 1: CCTTCAACCACCGCTCAACTCAACTGCAGTCTGG
# DNA 2: CCAGACTGCAGTTGAGTCCTTGCTAGGACGGAGG
# DNA 3: CCTCCGTCCTAGCAAGGGGCTGCTACCGGAAGGG
# DNA 4: CCCTTCCGGTAGCAGCCTGAGCGGTGGTTGAAGG
# B2: J34 junction, 6-MI labeled (structured_DNA)
# DNA 1: B1 DNA 1
# DNA 2: B1 DNA 2
# DNA 3: B1 DNA 3
# DNA 4: B1 DNA 4
# modifications: 6-methylisoxanthopterin (6-MI) nucleoside
# B3: JH1 junction (structured_DNA)
# DNA 1: CCTTCAACCACCGCTCATGATTACTGCAGTCTGG
# DNA 2: CCAGACTGCAGTAATCAACTACTTAGGACGGAGG
# DNA 3: B1 DNA 3 with G12A, C13G, A14T, G17T
# DNA 4: B1 DNA 4 with C22T
# B4: J34 junction, fluorescein end-labeled (structured_DNA)
# DNA 1: B1 DNA 1
# DNA 2: B1 DNA 2
# DNA 3: B1 DNA 3
# DNA 4: B1 DNA 4
# B5: J20 junction (structured_DNA)
# DNA 1: CCACCGCTCAACTCAACTGC
# DNA 2: GCAGTTGAGTCCTTGCTAGG
# DNA 3: CCTAGCAAGGGGCTGCTACC
# DNA 4: GGTAGCAGCCTGAGCGGTGG
# Tests used:
# [1] = target: T1, Integration Host Factor (IHF) (Escherichia coli (purified from E. coli …, UniProt P0A6X7;P0A6Y1 1-99;1-94)); assay: EMSA; 70 mM KCl, no Mg2+; 5 mM Tris-HCl pH 7.4-7.6, 70 mM KCl, 0.1 mM EDTA, 0.5-10% ethylene glycol, fluorescence at 10 C; Mg buffer: 5 mM Tris-HCl pH 7.4, 1 mM MgCl2, 10% ethylene glycol; stopped flow 20 C with 0.01% NP-40; conditions: protein: recombinant; copies: 1;1; label: none for EMSA (SYBR Green); immobile four-way junction of 4 strands (34 nt), four 17 bp arms
# T1 sequence (P0A6X7 whole entry, chain 1 of 2): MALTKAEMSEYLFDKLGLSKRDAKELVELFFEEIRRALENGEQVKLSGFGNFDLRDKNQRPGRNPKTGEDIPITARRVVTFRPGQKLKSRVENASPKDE
# T1 sequence (P0A6Y1 whole entry, chain 2 of 2): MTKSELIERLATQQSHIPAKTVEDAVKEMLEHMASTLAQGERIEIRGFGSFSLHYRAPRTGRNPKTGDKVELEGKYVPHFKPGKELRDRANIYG
# [2] = target: T1, Integration Host Factor (IHF); assay: fluorescence intensity; 70 mM KCl; 0.5 nM DNA; printed as <=2.2; 5 mM Tris-HCl pH 7.4-7.6, 70 mM KCl, 0.1 mM EDTA, 0.5-10% ethylene glycol, fluorescence at 10 C; Mg buffer: 5 mM Tris-HCl pH 7.4, 1 mM MgCl2, 10% ethylene glycol; stopped flow 20 C with 0.01% NP-40; conditions: protein: recombinant; copies: 1;1; label: 6-MI; immobile four-way junction of 4 strands (34 nt), four 17 bp arms
# [3] = target: T1, Integration Host Factor (IHF); assay: fluorescence intensity; 70 mM KCl; end-labeled; 5 mM Tris-HCl pH 7.4-7.6, 70 mM KCl, 0.1 mM EDTA, 0.5-10% ethylene glycol, fluorescence at 10 C; Mg buffer: 5 mM Tris-HCl pH 7.4, 1 mM MgCl2, 10% ethylene glycol; stopped flow 20 C with 0.01% NP-40; conditions: protein: recombinant, copies: 1;1, label: none for EMSA (SYBR Green), immobile four-way junction of 4 strands, four 17 bp arms
# [4] = target: T1, Integration Host Factor (IHF); assay: EMSA; 70 mM KCl; apparent; 5 mM Tris-HCl pH 7.4-7.6, 70 mM KCl, 0.1 mM EDTA, 0.5-10% ethylene glycol, fluorescence at 10 C; Mg buffer: 5 mM Tris-HCl pH 7.4, 1 mM MgCl2, 10% ethylene glycol; stopped flow 20 C with 0.01% NP-40; conditions: protein: recombinant, copies: 1;1, label: none for EMSA (SYBR Green)
# [5] = target: T1, Integration Host Factor (IHF); assay: fluorescence anisotropy; 70 mM KCl; 2 nM DNA; 5 mM Tris-HCl pH 7.4-7.6, 70 mM KCl, 0.1 mM EDTA, 0.5-10% ethylene glycol, fluorescence at 10 C; Mg buffer: 5 mM Tris-HCl pH 7.4, 1 mM MgCl2, 10% ethylene glycol; stopped flow 20 C with 0.01% NP-40; conditions: protein: recombinant; copies: 1;1; label: fluorescein (end); immobile four-way junction of 4 strands (34 nt), four 17 bp arms
# [6] = target: T1, Integration Host Factor (IHF); assay: fluorescence anisotropy; 1 mM Mg2+?; 5 mM Tris-HCl pH 7.4-7.6, 70 mM KCl, 0.1 mM EDTA, 0.5-10% ethylene glycol, fluorescence at 10 C; Mg buffer: 5 mM Tris-HCl pH 7.4, 1 mM MgCl2, 10% ethylene glycol; stopped flow 20 C with 0.01% NP-40; conditions: protein: recombinant; copies: 1;1; label: none for EMSA (SYBR Green); 5' TAMRA for fluorescence intensity; donor-acceptor pair for stopped flow; four-way junction of 4 strands (20 nt), four 10 bp arms
# [7] = target: T1, Integration Host Factor (IHF); assay: fluorescence intensity; 70 mM KCl; 5'-TAMRA; 5 mM Tris-HCl pH 7.4-7.6, 70 mM KCl, 0.1 mM EDTA, 0.5-10% ethylene glycol, fluorescence at 10 C; Mg buffer: 5 mM Tris-HCl pH 7.4, 1 mM MgCl2, 10% ethylene glycol; stopped flow 20 C with 0.01% NP-40; conditions: protein: recombinant; copies: 1;1; label: none for EMSA (SYBR Green); 5' TAMRA for fluorescence intensity; donor-acceptor pair for stopped flow; four-way junction of 4 strands (20 nt), four 10 bp arms
# [8] = target: T1, Integration Host Factor (IHF); assay: EMSA; 1 mM Mg2+; apparent; 5 mM Tris-HCl pH 7.4-7.6, 70 mM KCl, 0.1 mM EDTA, 0.5-10% ethylene glycol, fluorescence at 10 C; Mg buffer: 5 mM Tris-HCl pH 7.4, 1 mM MgCl2, 10% ethylene glycol; stopped flow 20 C with 0.01% NP-40; conditions: protein: recombinant; copies: 1;1; label: none for EMSA (SYBR Green); 5' TAMRA for fluorescence intensity; donor-acceptor pair for stopped flow; four-way junction of 4 strands (20 nt), four 10 bp arms
binder,measurement,setting,value
B1,Kd,[1],58 ± 36 nM
B2,Kd,[2],< 2.2 nM
B3,Kd,[3],9.2 ± 2 nM
same,Kd,"[4]; end label for fluorescence, immobile four-way junction of 4 strands, four 17 bp arms",65 ± 8 nM
B4,Kd,[5],2 nM
B5,Kd,[6],43 ± 11 nM
same,Kd,[7],4.4 ± 0.5 nM
same,Kd,"[4]; 5' TAMRA for fluorescence intensity, donor-acceptor pair for stopped flow, four-way junction of 4 strands (20 nt), four 10 bp arms",170 ± 40 nM
same,Kd,[8],514 ± 141 nM
